In test [1] the target is T1, ferroportin fused to green fluorescent protein (Mus musculus, UniProt Q9JHI9).
T1 construct: expressed in transfected cells
T1 sequence (Q9JHI9 1-570): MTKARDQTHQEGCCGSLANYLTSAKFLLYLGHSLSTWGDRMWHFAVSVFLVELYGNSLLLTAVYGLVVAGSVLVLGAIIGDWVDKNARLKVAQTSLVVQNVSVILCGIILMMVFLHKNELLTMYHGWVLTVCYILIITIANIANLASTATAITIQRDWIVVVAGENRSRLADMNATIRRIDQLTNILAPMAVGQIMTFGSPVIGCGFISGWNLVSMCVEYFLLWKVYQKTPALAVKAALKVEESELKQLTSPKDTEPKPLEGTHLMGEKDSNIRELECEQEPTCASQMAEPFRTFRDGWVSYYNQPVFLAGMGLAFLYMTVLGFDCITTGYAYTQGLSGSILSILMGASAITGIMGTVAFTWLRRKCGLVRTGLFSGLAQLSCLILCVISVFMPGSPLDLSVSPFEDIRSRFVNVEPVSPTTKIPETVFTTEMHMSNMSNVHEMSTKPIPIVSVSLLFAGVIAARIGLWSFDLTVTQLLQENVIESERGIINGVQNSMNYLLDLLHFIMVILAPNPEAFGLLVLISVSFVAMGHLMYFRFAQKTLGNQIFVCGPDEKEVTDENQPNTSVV
The following applies: read-out: EC50 (loss of fluorescence); 24 hours incubation; Hep25 preparations; cited from earlier work.

In test [2] the target is T2, ferroportin (Homo sapiens, UniProt Q9NP59).
T2 sequence (Q9NP59 1-571): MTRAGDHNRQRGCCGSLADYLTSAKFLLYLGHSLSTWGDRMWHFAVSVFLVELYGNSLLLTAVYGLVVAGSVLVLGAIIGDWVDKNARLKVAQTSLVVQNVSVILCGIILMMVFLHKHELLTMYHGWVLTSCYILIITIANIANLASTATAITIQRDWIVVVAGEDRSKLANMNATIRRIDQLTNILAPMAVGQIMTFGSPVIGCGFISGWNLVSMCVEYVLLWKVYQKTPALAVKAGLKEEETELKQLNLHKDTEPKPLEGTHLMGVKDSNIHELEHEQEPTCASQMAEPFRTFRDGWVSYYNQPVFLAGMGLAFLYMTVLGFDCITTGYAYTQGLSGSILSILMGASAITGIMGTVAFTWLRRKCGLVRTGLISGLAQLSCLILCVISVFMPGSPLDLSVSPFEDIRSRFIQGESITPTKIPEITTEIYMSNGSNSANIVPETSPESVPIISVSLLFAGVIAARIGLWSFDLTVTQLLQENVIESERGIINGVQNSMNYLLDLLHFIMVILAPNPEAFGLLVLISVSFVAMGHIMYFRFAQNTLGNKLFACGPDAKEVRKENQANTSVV
Briefly: FPN activity assay: internalization of ferroportin-GFP in stably transfected HEK293 cells. The format is cell-based. More on the design: expressed in transfected cells. The method, then:
Peptide analogues were tested in vitro for induction of internalization of the human ferroportin protein. Following internalization, the ferroporin protein is degraded. The assay used (FPN activity assay) measures a decrease in fluorescence of the receptor. The cDNA encoding the human ferroportin (SLC40A1) was cloned from a cDNA clone from Origene (NM_014585). The DNA encoding the ferroportin was amplified by PCR using primers also encoding terminal restriction sites for subcloning, but without the termination codon. The ferroportin receptor was subcloned into a mammalian GFP expression vector containing a neomycin (G418) resistance marker in such that the reading frame of the ferroportin was fused in frame with the GFP protein. The fidelity of the DNA encoding the protein was confirmed by DNA sequencing. HEK293 cells were used for transfection of the ferroportin-GFP receptor expression plasmid. The cells were grown according to standard protocol in growth medium and transfected with the plasmids using Lipofectamine (manufacturer's protocol, Invitrogen). […] The EC50 of these reference compounds for ferroportin internalization/degradation was determined according to the FPN activity assay described above. […]

Test [3] addresses T2, ferroportin. Briefly: T47D cell-based ferroportin internalization assay in presence of 0.5% mouse serum albumin (MSA). More on the design: a human breast carcinoma adherent cell line which endogenously expresses ferroportin; host or cells: T47D. The following applies: Table 1C. The method, then: The potency of the peptides in causing ferroportin internalization was evaluated in a T47D cell-based assay. […] In this internalization assay, the potency of the test peptides was evaluated in the presence of serum albumin, which is the main protein component in the blood. T47D cells were maintained in RPMI media (containing required amount of fetal bovine serum) and regularly sub-cultured. In preparation for the assay, the cells were seeded in 96-well plates at a density of 80-100 k cells per well in 100 ul volume and allowed to rest overnight. On the next day, test peptides were first prepared in dilution series (10-point series, starting concentration of ˜5 μM, typically 3-4×fold dilution steps), all with 0.5% mouse serum albumin (MSA purified from mouse serum; Sigma, A3139). The test peptide dilution series were allowed to incubate at room temperature for 30 min. Then the media was aspirated from the 96-well cell plate and test peptide dilution series were added. […] The Median Fluorescence Intensity (MFI) of the AF647-positive population was measured (after removing dead cells and non-singlets from the analysis). […] The IC50 potencies were calculated by using 4-parameter non-linear fitting function in Graphpad Prism, and the results are provided in Table 1C.

The target of test [4] is human ferroportin (SLC40A1) fused in frame with GFP, stably expressed in HEK293 cells (human) (UniProt Q9NP59). The experiment in a line: cell-based or functional assay.
Test [5] has as its target ferroportin endogenously expressed on T47D cells (HTB 133, ATCC) (human) (UniProt Q9NP59). Briefly: cell-based or functional assay.

These results are taken from patent US20250170216A1 (Protagonist Therapeutics, Inc., priority 2022, published 2025).

Like-named read-outs stand apart in the source and are kept apart here. Some results are limits rather than exact numbers.

As to `CC[C@H](C)[C@@H]1NC(=O)[C@@H](NC(=O)[C@@H](NC(=O)[C@@H]2CCCN2C(=O)[C@H](Cc2ccccc2)NC(=O)[C@H](Cc2c[nH]cn2)NC(=O)[C@@H](NC(=O)[C@@H](N)CC(=O)O)[C@@H](C)O)[C@@H](C)CC)CSSC[C@@H](C(=O)N[C@@H](CCCCN)C(=O)N[C@H](C(=O)O)[C@@H](C)O)NC(=O)[C@@H]2CSSC[C@@H]3NC(=O)[C@@H]4CSSC[C@H](NC(=O)[C@H](Cc5ccccc5)NC1=O)C(=O)N[C@@H](CSSC[C@H](NC(=O)[C@H](CCCCN)NC(=O)[C@H](CO)NC(=O)[C@H](CCCNC(=N)N)NC(=O)[C@H](Cc1c[nH]cn1)NC3=O)C(=O)NCC(=O)N[C@@H](CCSC)C(=O)N2)C(=O)NCC(=O)N4` [Hepcidin, Hy-DTHFPIC(1)IFC(2)C(3)GC(2)C(4)HRSKC(3)GMC(4)C(1)KT-OH], in test [1], the EC50 was 0.005 to 0.015 µM.
As to `CC[C@@H](C)[C@@H](NC(=O)[C@H](N)Cc1ccccc1)C(=O)N[C@H](CS)C(=O)N[C@@H](C(=O)N1CCC[C@@H]1C(=O)N[C@H](Cc1ccccc1)C(=O)N[C@H](Cc1c[nH]cn1)C(=O)N[C@@H](C(=O)N[C@H](CC(=O)O)C(N)=O)[C@H](C)O)[C@H](C)CC` [RI-Mini Hepcidin, Hy-DPhe-DIle-DCys-DIle-DPro-DPhe-DHis-DThr-DAsp-NH2], the DC50 in test [2] (Table 6 reference compounds, read-out: Potency EC50) is above 10 µM.
As for `CC[C@H](C)[C@@H]1NC(=O)[C@@H](NC(=O)[C@@H]2CCCN2C(=O)[C@@H](NC(=O)[C@H](Cc2cnc[nH]2)NC(=O)[C@@H](NC(=O)[C@H](CCC(=O)O)NC(=O)CC(C)C)[C@@H](C)O)C(c2ccccc2)c2ccccc2)CSSC(C)(C)[C@@H](C(N)=O)NC(=O)[C@@H](CCCCN)NC(=O)C[C@H](Cc2ccccc2)NC(=O)[C@H](CCCCNC(=O)CCOCCOCCOCCOCCOCCOCCOCCOCCOCCOCCOCCOCCNC(=O)CCCCCCCCCCC(=O)O)NC1=O` [compound 4], the DC50 in test [2] (Table 1C, FPN internalization assay, read-out: IC50: FPN) was above 0.5 µM. In addition, the IC50 in test [3] is 0.011 to 0.1 µM.
On to Hepcidin (peptide), for which the Potency EC50 (nM), FPN activity assay in test [4] was 34 nM.
“Isovaleric_Acid-E-C-H-DIP-P-C-I-dK-(NMe_Lys_AlbuTag)-dK-C-NH2-Trimethylbenzene (peptide)” showed an IC50: T47D MSA (nM), T47D internalization assay; *=>500 nM in test [5] above 500 nM. The molecule also displayed an IC50: FPN (nM), FPN internalization assay; *=IC50>500 nM in test [4] above 500 nM.
As to “Isovaleric_Acid-E-C-H-DIP-P-C-I-dK-DIP-(NMe_Lys_AlbuTag)-dK-C-am-Trimethylbenzene (peptide)”, the IC50: T47D MSA (nM), T47D internalization assay; *=>500 nM in test [5] was above 500 nM.
In turn, “Isovaleric_Acid-E-T-H-DIP-P-C-I-[Lys_1PEG2_1PEG2_Ahx_C4_Diacid]-bhF-[dLys_PEG11_OMe]-C-NH2 (peptide)” showed an IC50: FPN (nM), FPN internalization assay; *=IC50>500 nM in test [4] above 500 nM.
The molecule “Isovaleric_Acid-E-T-H-DIP-P-C-I-[Lys_PEG12_C6_Diacid]-bhF-[dLys_PEG11_OMe]-Pen-NH2 (peptide)” registered an IC50: T47D MSA (nM), T47D internalization assay; *=>500 nM in test [5] above 500 nM.
For the molecule “Isovaleric_Acid-E-T-H-DIP-P-C-I-[Lys_PEG12_C12_Diacid]-bhF-dK-Pen-NH2 (peptide)”, in test [4], the IC50: FPN (nM), FPN internalization assay; *=IC50>500 nM is above 500 nM.
As for “Isovaleric_Acid-E-T-H-DIP-P-C-I-dK-bhF-(Lys_Dap_C8_Diacid)-dK-C-NH2 (peptide)”, in test [5], the IC50: T47D MSA (nM), T47D internalization assay; *=>500 nM is above 500 nM.
Same read-out and setting: to “Isovaleric_Acid-E-hSer-H-DIP-P-C-I-[Lys_1PEG2_1PEG2_Ahx_C18_Diacid]-bhF-[dLys_PEG11_OMe]-C-NH2 (peptide)” belongs above 500 nM.
Molecule Mini-Hepcidin 1-9 (peptide) displayed a Potency EC50 (nM), FPN activity assay in test [4] of 712 nM.
In turn, RI-Mini Hepcidin (peptide) had a Potency EC50 (nM), FPN activity assay in test [4] above 10000 nM.

The EC50 is the midpoint of the concentration-response curve. As usually defined, the IC50 is the concentration that gives 50% inhibition.
